According to publication PMC8825798 (Communications Biology, 2022):
Values joined by “and” are separate entries in the source; they are usually repeats but may differ in a detail not shown here. Equal values may be shown once.

What was measured:
Assay in all cases: BLI
Conditions in all cases: both partners purified
[1] = biological target: T1, spike hepta-peptide Thr1273 → Glu (SARS-CoV-2, Thr^1273 → Glu (stands in the printed letters))
T1 peptide: GVKLHYE

[2] = biological target: T2, spike hepta-peptide Tyr1272 → Ala (1267Gly-Val-Lys-Leu-His-Ala-Thr1273) (SARS-CoV-2, Tyr^1272 → Ala (stands in the printed letters))
T2 peptide: GVKLHAT

[3] = biological target: T3, spike hepta-peptide Thr1273 → Arg (SARS-CoV-2, Arg^1273 (stands in the printed letters))
T3 peptide: GVKLHYR

[4] = biological target: T4, spike hepta-peptide Thr1273 → Ala (1267Gly-Val-Lys-Leu-His-Tyr-Ala1273) (SARS-CoV-2, Thr^1273 → Ala (stands in the printed letters))
T4 peptide: GVKLHYA

[5] = biological target: T5, spike hepta-peptide Thr1273 → Gln (SARS-CoV-2, Gln^1273 (stands in the printed letters))
T5 peptide: GVKLHYQ

[6] = biological target: T6, spike hepta-peptide Thr1273 → Val (SARS-CoV-2, Thr^1273 → Val (stands in the printed letters))
T6 peptide: GVKLHYV

B1: αCOPI-WD40 domain (residues 1-327) from Schizosaccharomyces pombe (domain or fragment)
chain: MEMLTKFESRSSRAKGVAFHPTQPWILTSLHNGRIQLWDYRMGTLLDRFDGHDGPVRGIAFHPTQPLFVSGGDDYKVNVWNYKSRKLLFSLCGHMDYVRVCTFHHEYPWILSCSDDQTIRIWNWQSRNCIAILTGHSHYVMCAAFHPSEDLIVSASLDQTVRVWDISGLRMKNAAPVSMSKEDQKAQAHNSKSNDKKGSTDAIVKFVLEGHDRGVNWCAFHPTLPLILSAGDDRLVKLWRMTASKAWEVDTCRGHFNNVSCCLFHPHQELILSASEDKTIRVWDLNRRTAVQTFRRDNDRFWFITVHPKLNLFAAAHDSGVMVFKLE
With B1 the Kd [1] was 310 nM and 380 nM, the koff [1] was 0.024 s⁻¹ and the kon [1] was 59000 M⁻¹ s⁻¹. The Kd [2] was 3770 nM and 2320 nM, the koff [2] was 0.28 s⁻¹ and the kon [2] was 121000 M⁻¹ s⁻¹. The Kd [3] was 1730 nM and 1290 nM, the koff [3] was 0.177 s⁻¹ and the kon [3] was 57600 M⁻¹ s⁻¹. For the same binder, the Kd [4] was 1130 nM and 1140 nM, the koff [4] was 0.076 s⁻¹ and the kon [4] was 66700 M⁻¹ s⁻¹. The Kd [5] was 780 nM and 1150 nM, the koff [5] was 0.066 s⁻¹ and the kon [5] was 60000 M⁻¹ s⁻¹. For the same binder, the Kd [6] was 3200 nM and 2060 nM, the koff [6] was 0.212 s⁻¹ and the kon [6] was 103000 M⁻¹ s⁻¹.
